Data from article PMC8000974, “Tumor Activated Cell Penetrating Peptides to Selectively Deliver Immune Modulatory Drugs” (Pharmaceutics, 2021).

Assays:
B16F10 melanoma cells = test: Cell culture Cy5 imaging of peptide uptake; format: cell-based; conditions: murine B16 cells, 1 μM peptide in 1% FBS, 2 h at room temperature then 2 h in media, fixed
Description: (§1) Murine B16F10 melanoma and LL2 Lewis lung carcinoma cell lines were purchased from ATCC. MC38 colon adenocarcinoma cell line was purchased from Kerafast (Boston, MA, USA). Cell lines were grown in Dulbecco’s modified eagle’s medium (DMEM) + 10% fetal bovine serum (FBS) media. All cell lines were maintained at low passage and routinely tested for mycoplasma. For Cy5 imaging, cells were resuspended and incubated with Cy5 labeled r9 or ACPP at 1 μM in 1% FBS. The cells were incubated for 2 h under rotation and covered to be protected from light at room temperature. Cells were then spun down (5 min at 2000 rpm) and resuspended in cell media for an additional 2 h. The cells were then fixed with 4% paraformaldehyde in phosphate buffered saline (PBS), washed twice with PBS and incubated with 4′,6-diamidino-2-phenylindole (DAPI) stain (1:500). Finally, the cells were washed with PBS and mounted on slides using Fluoromount mounting media (Sigma, St Louis, MI, USA). Cells were imaged using a Keyence microscope with a 100× oil objective and high-resolution settings.

[1] = tested on: LL2 Lewis lung carcinoma cells; test: Cell culture Cy5 imaging of peptide uptake; format: cell-based; conditions: murine LL2 cells, 1 μM peptide in 1% FBS, 2 h at room temperature then 2 h in media, fixed
Description: as §1

[2] = tested on: MC38 colon adenocarcinoma cells; test: Cell culture Cy5 imaging of peptide uptake; format: cell-based; conditions: murine MC38 cells, 1 μM peptide in 1% FBS, 2 h at room temperature then 2 h in media, fixed
Description: as §1

B16F10 melanoma tumors [3] = test: Tissue drug concentration (LC-MS/MS) after i.v. ACPP-resiquimod; format: in vivo; conditions: B16F10 tumor bearing C57Bl6 albino mice, 30 nmoles ACPP-resiquimod i.v., 6 h post injection, free resiquimod by LC-MS/MS
Description: Female six-week-old C57Bl6 albino mice were injected with 50,000 B16F10 melanoma cells subcutaneously into both thighs using a 1:1 PBS:Matrigel. Mice were i.v. injected with 30 nmoles of ACPP-resiquimod in 100 µL sterile water and 6 h post injection mice were sacrificed. Tumor and adjacent muscle tissue were excised, weighed, and flash frozen in liquid N2. A mixture of 44 mL H2O, 44 mL acetonitrile, and 2 mL glacial acetic acid was used as the diluent. Nine times w/v of diluent was added to the frozen tissue. Tissues were dissociated on ice with a Sonic dismemberator Model 500 (Fisher Scientific) tissue probe homogenizer using 5 s pulse of 20% amplitude four to five times. The samples were spun down to obtain clear supernatant. For muscle tissue, addition passage through a 0.22 µm Nylon filter (Costar Spin X; purchased from Sigma, St Louis, MI, USA) was used to obtain clear supernatant. A fixed volume of tissue supernatant from each sample was injected on the LC-MS/MS (Agilent 1100 LC with MSD Trap XCT, Santa Clara, CA, USA). Each sample was run in duplicate on the LC-MS/MS to determine reproducibility of integrated ion current for each sample. […] Concentration of unknown samples were then calculated (Graphpad PRISM).

B16F10 melanoma tumors [4] = test: In vivo murine therapy experiments; parameters: species or system mice; conditions: for Tumor control (tumor volume) vs control untreated: day 5 and day 9, 10 tumors per group
Description: Female six-week-old C57Bl6 albino mice were injected with 50,000 B16F10 melanoma cells subcutaneously in both thighs using a 1:1 mixture of PBS:Matrigel. The tumors were palpable five days after implant at which point treatment was initiated. Due to the rapid growth of B16F10 tumor in mice, dosing began when tumors reached an average size of 30 ± 13 mm^3. Animals were divided into four treatment groups: control, intratumoral (i.t.) resiquimod (30 nmoles per tumor), i.t. ACPP-resiquimod (30 nmoles per tumor), or i.v. ACPP-resiquimod (60 nmoles per mouse). Mice were given free drug or ACPP conjugated on day 5 and day 9. Each treatment group had five mice with 10 tumors. Tumor volumes were measured bi-weekly and mice weighed weekly. Mice were sacrificed when the tumor size reached 1500 mm^3.

Row | Compound | Cell uptake (Cy5 fluorescence microscopy) (B16F10 melanoma cells) | Cell uptake (Cy5 fluorescence microscopy) [1] | Cell uptake (Cy5 fluorescence microscopy) [2] | Resiquimod drug concentration in tumor tissue (B16F10 melanoma tumors [3]) [nM] | Resiquimod drug concentration in peri-tumoral muscle tissue (B16F10 melanoma tumors [3]; negative value from calibration background noise) [nM] | Antitumor efficacy compared with free resiquimod (B16F10 melanoma tumors [4]; ACPP-resiquimod i.t. or i.v. vs i.t. free resiquimod, total drug per animal constant) | Tumor control (tumor volume) vs control untreated (B16F10 melanoma tumors [4]; i.t. 30 nmoles per tumor) | Tumor control (tumor volume) vs control untreated (B16F10 melanoma tumors [4]; i.v. 60 nmoles per mouse) | Mouse survival, dose response (B16F10 melanoma tumors [4]; i.t. injection, 30 nmoles compared to 10 nmoles, Log-rank (Mantel–Cox) test)
1 | CCN1C(=CC=CC=CC2=[N+](CCCCCC(=O)NCCN3C(=O)CC(SC[C@@H](NC(=O)[C@@H](CCCNC(=N)N)NC(=O)[C@@H](CCCNC(=N)N)NC(=O)[C@@H](CCCNC(=N)N)NC(=O)[C@@H](CCCNC(=N)N)NC(=O)[C@@H](CCCNC(=N)N)NC(=O)[C@@H](CCCNC(=N)N)NC(=O)[C@@H](CCCNC(=N)N)NC(=O)[C@@H](CCCNC(=N)N)NC(=O)[C@H](N)CCCNC(=N)N)C(N)=O)C3=O)c3ccc(S(=O)(=O)[O-])cc3C2(C)C)C(C)(C)c2cc(S(=O)(=O)O)ccc21 (stereo partly shown) [Cy5 labeled r9] | readily taken up | readily taken up | readily taken up |  |  |  |  |  | 
2 | cyclo(RGD)fc-MC-HN-peg8-e9-oPLGC(Me)AG-r9-c-(MC-VC-PABC-resiquimod-CONH2 [ACPP-resiquimod] |  |  |  | 1142.3 ± 111.7 | -5.8 ± 3.5 | as efficacious as free resiquimod | improved tumor control | improved tumor control | 
3 | CCOCc1nc2c(N)nc3ccccc3c2n1CC(C)(C)O [resiquimod, Resiquimod, reference compound] |  |  |  |  |  |  | improved tumor control |  | statistically improved survival
